In PMC8509414, “A Novel GUCA1A Variant Associated with Cone Dystrophy Alters cGMP Signaling in Photoreceptors by Strongly Interacting with and Hyperactivating Retinal Guanylate Cyclase” (International Journal of Molecular Sciences, 2021):

Columns and labels:
[1] = biological target: the molecule itself; test: SEC; analytical gel filtration, Superose 12 10/300, 20 mM Tris-HCl pH 7.5, 150 mM KCl, 1 mM DTT, 500 µM EGTA + 1 mM Mg2+ or 1 mM Mg2+ + 1 mM Ca2+, room temperature; protein 20 µM (methods) or ~45 µM; apparent MW from a calibration curve
[2] = biological target: T1, human recombinant ROS-GC1 (retinal guanylate cyclase 1) (human, UniProt Q02846 52-1103); test: cell-based or functional assay
T1 sequence (looked up): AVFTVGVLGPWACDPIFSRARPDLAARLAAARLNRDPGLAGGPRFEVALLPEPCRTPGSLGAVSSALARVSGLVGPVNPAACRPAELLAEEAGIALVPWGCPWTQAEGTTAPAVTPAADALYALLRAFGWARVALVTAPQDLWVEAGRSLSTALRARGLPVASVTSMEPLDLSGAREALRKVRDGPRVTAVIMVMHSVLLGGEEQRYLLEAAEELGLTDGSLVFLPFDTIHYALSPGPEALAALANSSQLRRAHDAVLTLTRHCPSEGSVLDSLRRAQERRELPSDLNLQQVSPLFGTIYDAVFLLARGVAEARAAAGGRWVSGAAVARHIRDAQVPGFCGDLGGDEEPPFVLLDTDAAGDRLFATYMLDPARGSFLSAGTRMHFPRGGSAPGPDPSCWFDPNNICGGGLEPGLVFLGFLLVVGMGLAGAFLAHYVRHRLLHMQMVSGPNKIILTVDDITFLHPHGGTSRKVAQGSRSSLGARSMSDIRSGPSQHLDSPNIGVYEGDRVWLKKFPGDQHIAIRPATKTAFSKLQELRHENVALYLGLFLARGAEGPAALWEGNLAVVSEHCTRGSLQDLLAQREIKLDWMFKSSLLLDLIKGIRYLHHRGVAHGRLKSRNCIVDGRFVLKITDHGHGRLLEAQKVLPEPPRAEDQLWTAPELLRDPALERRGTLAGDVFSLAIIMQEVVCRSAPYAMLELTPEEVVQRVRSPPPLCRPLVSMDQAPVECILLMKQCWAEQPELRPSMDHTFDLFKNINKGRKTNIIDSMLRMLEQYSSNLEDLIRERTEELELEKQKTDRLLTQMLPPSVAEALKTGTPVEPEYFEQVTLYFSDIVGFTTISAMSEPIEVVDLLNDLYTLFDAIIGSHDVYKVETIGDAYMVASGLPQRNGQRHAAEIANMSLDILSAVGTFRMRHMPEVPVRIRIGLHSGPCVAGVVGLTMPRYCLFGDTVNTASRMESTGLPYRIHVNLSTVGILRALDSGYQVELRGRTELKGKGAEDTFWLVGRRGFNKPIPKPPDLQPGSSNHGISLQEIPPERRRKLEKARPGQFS

B1: N104H-GCAP1 (guanylate cyclase-activating protein 1, variant p.Asn104His, in the E6S background) (natural protein, human, UniProt P43080 1-201, looked up)
chain: MGNVMSGKSVEELSSTECHQWYKKFMTECPSGQLTLYEFRQFFGLKNLSPSASQYVEQMFETFDFNKDGYIDFMEYVAALSLVLKGKVEQKLRWYFKLYDVDGHGCIDRDELLTIIQAIRAINPCSDTTMTAEEFTDTVFSKIDVNGDGELSLEEFIEGVQKDQMLLDTLTRSLDLTRIVRRLQNGEQDEEGADEAAEAAG
modifications: N-terminal myristoylation (by co-expressed S. cerevisiae N-myristoyl transferase, yNMT)
notes: cDNA of GCAP1-E6S in pET-11a (NdeI/NheI); c.310A>C p.(Asn104His) introduced by site-directed mutagenesis; N104H is a patient variant; E6S was put in by the authors to give the consensus for myristoylation by yNMT; No tag is mentioned; Myristoylation on Gly2 implies loss of the initiator Met (surmise); also called N104H-GCAP1 variant; p.N104H; source: E. coli BL21 co-transformed with pBB131-yNMT
- stoichiometry N [1]: 2
- GC activity (cGMP synthesis, HPLC) of HEK293 membranes with human GC as a function of N104H-GCAP1 concentration (0-10 µM) at <19 nM free Ca2+; EC50 = [N104H] at which GC activity is half-maximal [2]: 1600 nM
